Measured values reported in the DeepSol protein solubility set.

assay: soluble on expression in E. coli; label from the status in PepcDB or PDB records

Row | Sequence | soluble on expression in E. coli
1 | MGRRRGFLTMRIPRIYHPEPLTSHSHIALCEDAANHIGRVLRMGPGQALQLFDGSNQVFDAEITSASKKSVEVKVLEGQIDDRESPLHIHLGQVMSRGEKMEFTIQKSIELGVSLITPLFSERCGVKLDSERLNKKLQQWQKIAIAACEQCGRNRVPEIRPAMDLEAWCAEQDEGLKLNLHPRASNSINTLPLPVERVRLLIGPEGGLSADEIAMTARYQFTDILLGPRVLRTETTALTAITALQVRFGDLGLEHHHHHH | not soluble
2 | MAYWRKWRTSMNLEALPKYYSPKSPKLSDAAPATGSGGLTITDVMAAQGMVQSKAPLGFALFLAKAGVQDPQFAIEGLLNYAMALDNPTLNKLSEEIRLQIIPYLVSFAFADYSRSAASKARCEPCAGTGFHNVLREVVKYSRSGESVIKEEWVKELCQHCHGKGEVSTACRGCKGKGIVLDEKRTRLHGAPVYKICGRCNGNRFSRLPTTLARCHVQKLVPDLTDYQWYKGYADVIDKLVTKCWQEEAYAEVQLRKVTR | not soluble
3 | MSKSDLRMKSNADKVIANLKKMTPIAEKEGAAMVNDSLAKIYQLIVPMTPIKSGDLRRGYRIIKARKLSSGRIVGALINNEKYFRYVNDGHRTKNGGFVKGRFMLQKSNKLANATYIPKRFKQMAIIIVKKG | not soluble
4 | MSLNTEIEMNELLEKAKKIKCLICDVDGVLSDGLLHIDNHGNELKSFHVQDGMGLKLLMAAGIQVAIITTAQNAVVDHRMEQLGITHYYKGQVDKRSAYQHLKKTLGLNDDEFAYIGDDLPDLPLIQQVGLGVAVSNAVPQVLEFADWRTERTGGRGAVRELCDLILNAQNKAELAITGYLKQEGHHHHHH | soluble
5 | ITLKYNYTVTLKDDGLYDGVFYDHYNDQLVTKISYNHETRHGNVNFRADWFNISRSPHTPGNDYNFNFWYSLMKETLEEINKNDSTKTTSLSLITGCYETGLLFGSYGYVETANGPLARYHTGDKRFTKMTHKGFPKVGMLTVKNTLWKDVKAYLGGFEYMGCSLAILDYQKMAKGKIPKDTTPTVKVTGNELEDGNMTLECTVNSFYPPDVITKWIESEHFKGEYKYVNGRYYPEWGRKSNYEPGEPGFPWNIKKDKDANTYSLTDLVRTTSKMSSQPVCVVFHDTLEAQVYTCSEGCNGELYDHLYRKTEEGEGGSHHHHHH | soluble
6 | MGSDKIHHHHHHMLEQSIEAFKACVNDWLSAIAQLGEKPNRGNLHRFAYRAIRDKYPQLHSNVVQDAMNLAIEIYRSWLKNGGEFPKFRSDVIYFKGVDVRIENNGLVVPLMGRRVYLPLYVPKKYKKYLQYKHGRVIIKRVDKDWYALVSVNVPEKEPIKPVGTIGVDLGYYNLLVASDEKGRVVMRVQGDILIRHKEHMERLTARRQERLMKKFGIYARTNHKDRRFVNDLNHKIAKALVLKAKQLNRAIVLEKLKGLKKQRRPKLLRKILHLWSYADLIAKIVYKAKLYGVPVIFVSPRGTSKTCSNCGYYVRTFKDDRVFRCPKCGFVADRDYNASINIAKKGLEELRKRTFLPTLKDEASSPQGW | not soluble
7 | MDLFIKKRIKAIQKGDQNAYADLVDLYKDKIYRLCYRMLGNRHEAEDAAQEAFIRAYIHIDTYNPEMKFSTWLYRIATNLTIDKLRKRKPDVYLDEEVGGTDGLTMQAQLPSREASPEEAVESLELQETVQRAIEQLPEKYRSVIVLKYMEDLSLQEISEILGLPVGTVKTRLHRGREALRRQLGHL | not soluble
8 | MQKVRSDIMTHRGSHYDLGVKTALWLQTTPLLKNRNKEWRKRIPRFDIDVKETYDIFQIYSPQIWEEIIGMQDVLNLPTKQMILNFGHYRFTDLKDSGCTVYKGRDFLVRNYDYHPATYDGRYLLFQPNDGGLSQIGPTSRVTGRMDGMNEYGLVMAYNFMHRKKPANGFVCYMVGRLILENCKNVTEAIKFLKEVPHRSSFSYILMDRHSNYAIVEVTPRSIDVRYEHICTNHFELLTHENRNYTRESKERLNRVINKTTPSTNKDIAFKLFNDPQYEIYSNLFKSWSGTIHTSLYEPNSLIAWMALGQNSHPTSINFSNWLKGKKLNINYFEGEIDTPLTFATYLEHHHHHH | not soluble
9 | MRLRHLSDPDSLPALDKSFAIERPALGLAPDAPPVRILLLYGSLRARSFSRLAVEEAARLLQFFGAETRIFDPSDLPLPDQVQSDDHPAVKELRALSEWSEGQVWCSPERHGQITSVMKAQIDHLPLEMAGIRPTQGRTLAVMQVSGGSQSFNAVNTLRLLGRWMRMFTIPNQSSIAKAFQEFDAAGRMKPSPYYDRIADVMEELVRFTALVRPHREALTDRYSERKAAGHVIDEATDLSSIAIAPQPLPESETS | soluble
10 | MGSDKIHHHHHHMPSLKLSLTGLQIIKQARSEKGWTIDNPCWLEQASQVLEPGRNWENAEVFAAGVSLATWKRFLKGDAIDASVFKAFCQVLGLNWQDLVERPPNSFIIGTTQIPNIPLFFGRRYELTTLSQAIEQGTRLIAITGIGGMGKTALATKLVESRSSHFSQTLWFSFHHNPPAKDKIPTLVPQTLMVFDGWDGILGGNRGGQYRPEYEPYADFLRTVVQTTHTSCVIITSREQPEGLNILGAGGAVIFPLGGLMEGAIELLQHHQLTFNAQQWITLVNQYGGNPLFLNMAANFIHELFAGDVGEFLASGTLVAGEFAPLVTQWLKQISTLEQILIKSLATKVQGFTRQEILLHLASRAANGDILAALLSLKRRGLIETMKDGELERFYLQPVILKCVQRLF | not soluble
11 | MSLHSPGKAFRAALTKENPLQIVGTINANHALLAQRAGYQAIYLSGGGVAAGSLGLPDLGISTLDDVLTDIRRITDVCSLPLLVDADIGFGSSAFNVARTVKSMIKAGAAGLHIEDQVGAKRCGHRPNKAIVSKEEMVDRIRAAVDAKTDPDFVIMARTDALAVEGLDAAIERAQAYVEAGAEMLFPEAITELAMYRQFADAVQVPILANITEFGATPLFTTDELRSAHVAMALYPLSAFRAMNRAAEHVYNVLRQEGTQKSVIDTMQTRNELYESINYYQYEEKLDNLFARSQVK | soluble
12 | MGTVMIRNVYKGVHNMKLENGWETSFLEVVQNSEFKKEALLSQLLCQDSEEVEELVDDYGYEELVEREHDDELAEILGEELFSEMERQVFLSSNPEEKLISFVNGLGFHVLDWIVLLETEFGIDSANFTSDAVKVLEKRFRQFPYIEDKTIFDMTFGESMDVLESVTGLQLKEKMNV | not soluble
13 | MGSDKIHHHHHHMVGIGFRKDFAAKFLNTTDLQPDFIEVAPENWIGIGGLWKKRLQQALEKYPLYTHGLSLSIGSPDALDFDLLKGVKKFLAETGAKVYSEHLSYSKCDNAHLYDLLPIPFTHDAVKHIAKRIQTIQDFLERRLAIEIVSYYSPVAAEMSELEFVNAILQESDCDLLLDVNNIYVNGFNHNYDPYAFINQLPLERVAYIHIAGHDQVSETLIIDTHGEAIVDPVYYLYQYTMNQLQRDVPTLLERDFNIPQLSELQGEIDRLKKIKADCLTKELYGIQR | not soluble
14 | PTIFEERHLKYISQLGKGNFGSVELCRYDPLGDNTGALVAVKQLQHSGPDQQRDFQREIQILKALHSDFIVKYRGVSYGPGRPELRLVMEYLPSGCLRDFLQRHRARLDASRLLLYSSQICKGMEYLGSRRCVHRDLAARNILVESEAHVKIADFGLAKLLPLDKDYYVVREPGQSPIFWYAPESLSDNIFSRQSDVWSFGVVLYELFTYCDKSCSPSAEFLRMMGCERDVPALCRLLELLEEGQRLPAPPACPAEVHELMKLCWAPSPQDRPSFSALGPQLDMLWSGSR | soluble
15 | MSLGASTNWDDHAIIIFGYPETIANSIILHFANFGEILEDFRVIKDFKKLNSKNMSKSPSLTAQKYPIYTGDGWVKLTYKSELSKSRALQENGIIMNGTLIGCVSYSPAALKQLASLKKSEEIINNKTSSQTSLSSKDLSNYRKTEGIFEKAKAKAVTSKVRNAEFKVSKNSTSFKNPRRLEIKDGRSLFLRNRGKIHSGVLSSIESDLKKREQASKSKKSWLNRLNNWLFGWNDLEGHHHHHH | soluble
16 | MANSNTQRMGTGSAILPARRRRATPRRLPKRAAHHYTPRVFSAIEPENSPMLKRSLALAAGIALSLSAALAHAETLKELKVSAIPDEAPTELLRKFKPLGAYLEKQLGMPVKFVPVADYAGVVEALAADRLDMAWLGGFTFVQARLKTGNAIPLVQREQDQQFTSKFITADPQVKSLQDLKGKTFAFGSVSSTSGSLMPRYFMQKDGIVPEQFFSRVAYSGAHDATVAWVQAGKVDAGVLNASVWQKLVDSGKVDTAKVKVFATTPTYYDYNWTVRGNLDPALAEKIKQAFLALDPAKPADKEILDLQAASRFIETNPDNYKGIEESARAAGLLK | not soluble
17 | GSEDINRNPLLPTKEDEKMDGVIYGAYLPNLEKSVIPIGTASESTEPVNRYQIGVNLAGDAWAGYMSPRDNKFNGSKNFTNYFMYENWVNYVYSFMVTDVYSPWMQIKRISQDEGTRNDEIYALAQIIKIAALHRTTDMFGPIPYSQVGKGSFKVAYDSQESVYRSFLKELEEAVQTLDDYSNKSKEVLPAFDIVYNGDVNKWMRFANSLMLRLAIRVRFADAGLAKEYAEKAVKHPAGLINSKELAAQMGKGAGLQMKNPLKVINEEYNDTRMGATIYSYLAGYNDARAAVYFVKNNGFKAVRCGIAKSGDAYNGFTRPNVHEDDPLYWMKASEVCFLKAEGALAGFDMGGSAGDFYNAGIRMSFSENGLDNSSAETYLKDSTRKPANYTDTSNGELSANAPSSITIRWENGATEEEKLERIITQKYLAIFPNGQEAWTEWRRTGYPRQIVVAENKTNSAVLIGNGYDLGGVRRLPYPRTEYEQNGENLHNAISQYLGGVDNAATKVWWDKKSK | soluble
18 | MKCNMCPRACNVDRNVNTGFCGMTNDIYAARAALHMWEEPCISGEHGSGAVFFSGCTLRCIFCQNSEIAAAQVGKKITVERLSDIFLELQDKCANNINLVTATHFVPQVAEALVKAKNKGLVIPVVYNSSAYENVSTLNMLDGLVDVYLPDMKYIDSRLSAEYSKAPDYADVAKAAIHEMVRQTGKLEFFIEDDELVKSGRVEAGIMKKGVIVRHLVLPGTTKDSKAVIKYLIDTYGDDIYISIMSQYTPFDRLKKHPLLSRKVTRKEYNSVVDYAIDCGINNGFIQEGDVAEESFIPEFDYEGI | not soluble
19 | MRDVTKGSFNDSPNNGFFEIQYKEDGVYLTVHPPIGKGKAVEVNDVISRLTQKKIVYDKEMVELAVQRASNVPVKIGEPQEELKLDATIDVNISPDKMKATMVIRPPDGGRMLTKDEMMEILKNSGVRYGINESMLENVSKYPVYNEIIVIAEGTPPINGQNGKVEFHFDLKKERKPTILEDGRVDFRELNLIESVKKGQVLCTLVPPLPGTPGRTVEDIEVPALDGKPAVLPKGKNVEISEDGQSLIAGIDGQVNYIDGKVSVFANYEVPADVDNSTGNISFVGNVIIRGNVLSGFTVEAGGSVEVMGVVEAAVIKADGDIILRRGMQGLGRGILKSGGDIIAKYIENSIIEAKGDIKAEAIMHSNVKCGNKLELSGKKGLLIGGKCKVGKEIVAKVIGSYLATHTDIEVGVDPQIKERYKELRDEIRKIEEDLVKAEQAITILKKLEAAGKLTPEKQELMARSIRTKIYYSNRLGELKEELIITEQRLQKEADGKIRVFDHIYPGTKVTIGTSMMYVKEDLQYCTLYRDGADIRVGPIDK | soluble
20 | MSLSIRLHIWGDYACFTRPEMKVERVSYDVMTPSAARGILEAIHWKPAIRWHIDRLHVLKPIRFQSIRRNEVGAKASASNAKSAMKKGSTEGLGIVVDENRQQRAAMVLTNVAYVIEAHFTMTEKAGPEDTPAKHLSMFNRRAAKGQCFHRPCLGTREFAAEFALLGENDPLPEAKPRLEVRDDDFGWMLHDIDFASGRNESHFFRAVMKDGVIEVPPFKSGEVVKEGHHHHHH | soluble
21 | MCKHCGAAVLFVKDDRWHVFDAKPSEEGEWRIRSRWAANVAAEKTTVTRLTESKLRRARLMGEPLFRPHFQTCPANPRAKILQEKRRHG | not soluble
22 | MNGIKTGLGITPGEHIISADSALSRNIRQCFCLSCHGRLILQTDAQGAWFEHDLYALSEQQKAACVVLNPEKSHPYIEDMEMFLSPLPVVLEWHCMMCEQFFHGKKFCEACGTGIYCRAVCTKSVYSYQPDLFQDCGGAST | soluble
